Laboratory results as given in IntAct's records for PubMed 15090617.

B1: Protein SGT1 (Saccharomyces cerevisiae), Q08446 (parent)
chain: MPVEKDLKTAYKALYDEKEPLKALHLYDEILKGSPTNLTALIFKAACLEKLYFGFSDWHSDATMENAKELLDKALMTAEGRGDRSKIGLVNFRYFVHFFNIKDYELAQSYFKKAKNLGYVDDTLPLWEDRLETKLNKKNKKQKDSTNKHTIKPVESIENRGDNNSSHSPISPLKIETAPQESPKFKIDWYQSSTSVTISLFTVNLPESKEQVNIYISPNDRRTLSISYQVPKSGSEFQYNAKLSHEVDPKAVSLKIFPKKLEITLSKIDSTQWKKLEEDILTESSRLSDEGKNSDSATRLLSAETASKERLSYPSSSKKKIDWSKLDIDEEADEEAGSADSFFQKLYAGADPDTKRAMMKSFIESNGTALSTDWEDVSKGTVKTSPPEGMEPKHW

Variants of: B1
Settings: with skp1_yeast SKP1, P52286
Sequence of skp1_yeast SKP1, P52286 (P52286 whole entry): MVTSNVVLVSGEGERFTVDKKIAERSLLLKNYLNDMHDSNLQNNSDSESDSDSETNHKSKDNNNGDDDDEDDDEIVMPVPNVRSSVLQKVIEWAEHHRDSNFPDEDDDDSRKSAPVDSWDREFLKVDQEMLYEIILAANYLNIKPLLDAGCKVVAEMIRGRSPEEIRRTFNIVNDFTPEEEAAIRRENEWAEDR

Variant	effect of a mutation on the interaction
T146S	decreasing interaction
